Values of other authors in PMC6156988.

Molecular target: EspFu (Escherichia coli) (UniProt P0DJ88)
UniProt P0DJ88, sequence (P0DJ88 whole entry): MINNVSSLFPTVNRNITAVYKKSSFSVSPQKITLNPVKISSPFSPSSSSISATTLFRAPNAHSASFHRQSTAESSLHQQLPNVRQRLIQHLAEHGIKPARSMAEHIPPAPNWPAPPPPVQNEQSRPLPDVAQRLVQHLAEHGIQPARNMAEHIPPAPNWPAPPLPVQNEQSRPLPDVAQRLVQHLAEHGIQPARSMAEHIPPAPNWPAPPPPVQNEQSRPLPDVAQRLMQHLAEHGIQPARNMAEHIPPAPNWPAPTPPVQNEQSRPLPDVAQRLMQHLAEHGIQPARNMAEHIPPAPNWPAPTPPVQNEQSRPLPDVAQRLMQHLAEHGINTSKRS

IRTKS SH3 (from UniProt Q9UHR4)
Kd: 500 nM
